Laboratory results published in patent US20060057652A1.

Biological target: anaphase promoting complex subunit 1 (APC1) (Homo sapiens) (UniProt Q9H1A4)
Test: cell-based or functional assay

anaphase promoting complex subunit 1 (APC1) (Homo sapiens), sequence (Q9H1A4 whole entry, one chain of several): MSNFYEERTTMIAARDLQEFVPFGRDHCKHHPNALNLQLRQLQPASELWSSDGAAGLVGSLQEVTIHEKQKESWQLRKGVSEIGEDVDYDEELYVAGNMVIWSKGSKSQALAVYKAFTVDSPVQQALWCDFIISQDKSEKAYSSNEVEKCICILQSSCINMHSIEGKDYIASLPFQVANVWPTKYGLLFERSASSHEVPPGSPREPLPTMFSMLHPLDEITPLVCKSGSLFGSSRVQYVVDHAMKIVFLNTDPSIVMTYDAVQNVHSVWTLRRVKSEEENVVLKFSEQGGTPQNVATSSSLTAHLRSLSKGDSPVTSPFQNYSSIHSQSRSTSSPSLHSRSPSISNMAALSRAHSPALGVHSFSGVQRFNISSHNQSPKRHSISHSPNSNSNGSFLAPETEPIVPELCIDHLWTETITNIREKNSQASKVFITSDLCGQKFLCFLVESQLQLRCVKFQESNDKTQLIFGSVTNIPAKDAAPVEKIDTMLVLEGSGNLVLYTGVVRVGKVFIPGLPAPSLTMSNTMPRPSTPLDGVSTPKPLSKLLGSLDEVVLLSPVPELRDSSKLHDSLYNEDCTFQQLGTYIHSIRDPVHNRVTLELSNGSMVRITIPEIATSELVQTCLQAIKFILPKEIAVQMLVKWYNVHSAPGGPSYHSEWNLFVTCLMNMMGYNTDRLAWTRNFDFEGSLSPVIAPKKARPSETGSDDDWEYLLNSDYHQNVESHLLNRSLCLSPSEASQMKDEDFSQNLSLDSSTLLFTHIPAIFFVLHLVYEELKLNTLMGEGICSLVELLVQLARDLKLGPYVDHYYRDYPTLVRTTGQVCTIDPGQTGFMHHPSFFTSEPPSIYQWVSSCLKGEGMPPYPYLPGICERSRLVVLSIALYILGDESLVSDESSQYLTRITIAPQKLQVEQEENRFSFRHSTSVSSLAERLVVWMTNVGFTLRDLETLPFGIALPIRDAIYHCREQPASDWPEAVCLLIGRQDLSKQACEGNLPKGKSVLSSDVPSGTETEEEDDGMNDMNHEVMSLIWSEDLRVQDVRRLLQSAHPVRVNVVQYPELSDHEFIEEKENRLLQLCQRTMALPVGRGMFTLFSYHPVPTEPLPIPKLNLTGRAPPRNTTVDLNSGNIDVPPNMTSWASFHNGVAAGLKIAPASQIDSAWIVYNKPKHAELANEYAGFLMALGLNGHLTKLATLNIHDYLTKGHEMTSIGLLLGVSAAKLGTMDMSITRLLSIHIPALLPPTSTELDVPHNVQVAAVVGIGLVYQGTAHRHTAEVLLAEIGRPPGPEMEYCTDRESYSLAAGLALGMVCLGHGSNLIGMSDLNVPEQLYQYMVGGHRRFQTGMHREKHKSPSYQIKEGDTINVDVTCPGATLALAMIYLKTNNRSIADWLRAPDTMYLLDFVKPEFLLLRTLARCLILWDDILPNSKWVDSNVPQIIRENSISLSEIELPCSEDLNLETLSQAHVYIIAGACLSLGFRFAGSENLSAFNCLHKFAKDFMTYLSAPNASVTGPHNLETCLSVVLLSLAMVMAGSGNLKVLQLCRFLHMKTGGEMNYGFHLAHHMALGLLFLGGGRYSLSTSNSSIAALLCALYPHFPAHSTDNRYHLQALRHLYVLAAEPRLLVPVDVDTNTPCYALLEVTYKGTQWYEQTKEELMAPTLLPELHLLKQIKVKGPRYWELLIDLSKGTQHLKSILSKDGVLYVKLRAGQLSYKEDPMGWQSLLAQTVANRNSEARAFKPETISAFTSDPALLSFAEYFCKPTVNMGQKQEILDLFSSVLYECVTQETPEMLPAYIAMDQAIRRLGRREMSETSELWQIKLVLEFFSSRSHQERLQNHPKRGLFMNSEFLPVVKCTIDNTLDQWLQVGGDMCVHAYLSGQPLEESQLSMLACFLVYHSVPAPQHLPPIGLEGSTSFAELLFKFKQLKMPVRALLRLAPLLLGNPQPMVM

| Substance | percent of wild-type killing activity (apoptotic morphology, H1299 cells) (percent of wild-type killing activity) |
| --- | --- |
| GFP-Ap(42-121) (from UniProt Q99152 42-121) | 67 |
| GFP-Ap(82-121) (from UniProt Q99152 82-121) | 55 |
